Laboratory results: US20170137818

Molecular target: autotaxin (ENPP2/NPP2) (Homo sapiens) (UniProt Q13822)
Test: inhibition
[1] = NPP2 assay, no inhibition up to 1.0 uM

| Sequence | IC50 [1] [nM] | IC50 (LysoPLD assay, table says 40N only (which pool not stated)) [nM] |
| --- | --- | --- |
| ACACTCACAGGCGCTGGNNNNNNNNNNNNNNNNNNNNNNNNNNNNNNCGTGCATGGCCGCTAGT [DNA pool (SEQ 17)] | > 1000 | – |
| GTGGTCTAGCTGTACTCNNNNNNNNNNNNNNNNNNNNNNNNNNNNNNNNNNNNNNNNCCACAGTCAACGAGCTA [40N DNA pool (SEQ 1)] | > 1000 | > 1000 |
